# Measured values published in publication PMC6497250, “High-resolution cryo-EM structures of the E. coli hemolysin ClyA oligomers” (PLoS ONE, 2019).
# “And” between values parts separate entries of the source, which are not always exact repeats. Equal values may be shown once.
# B1: E. coli cytolysin A (ClyA) with complete N-terminal purification tag (natural protein)
# chain: MTEIVADKTVEVVKNAIETADGALDLYNKYLDQVIPWQTFDETIKELSRFKQEYSQAASVLVGDIKTLLMDSQDKYFEATQTVYEWCGVATQLLAAYILLFDEYNEKKASAQKDILIKVLDDGITKLNEAQKSLLVSSQSFNNASGKLLALDSQLTNDFSEKSSYFQSQVDKIRKEAYAGAAAGVVAGPFGLIISYSIAAGVVEGKLIPELKNKLKSVQNFFTTLSNTVKQANKDIDAAKLKLTTEIVAIGEIKTETETTRFYVDYDDLMLSLLKEAAKKMINTCNEYQKRHGKKTLFEVPEV
# notes: E. coli cytolysin A (ClyA), cDNA amplified from BL21 (DE3), mutations and deletions removed by two-step PCR; final plasmid has A248V compared to UniProtKB P77335; The soluble protein is a monomer; the oligomers (12, 13, 14, about 3) form with detergent; also called hemolysin (HlyE); silent hemolysin A (SheA); source: E. coli BL21 (DE3), purified (Ni2+-NTA, Mono Q anion exchange); not shown: His6, …
# How the values were obtained:
# [1] = target: the molecule itself; assay: cryo-EM structure; digitonin-induced intermediate state; Talos Arctica; 2D class averages and a map at 16 Å
# [2] = target: the molecule itself; assay: cryo-EM structure; sample #1: pore complexes in DDM, all SEC fractions pooled; Talos Arctica 200 kV; maps at 6.8 Å and 7.5 Å
# [3] = target: the molecule itself; assay: negative staining EM; ClyA incubated with 1% digitonin overnight, fractions from SEC (Superose 6 10/300 GL); intermediate state
# [4] = target: the molecule itself; assay: cryo-EM structure; sample #3: ClyA 2.5 mg/mL with 0.5% DDM and 5 mM DTT at 4°C overnight, then SEC in 25 mM Tris-HCl pH 8.0, 150 mM NaCl, 0.05% digitonin, 2 mM DTT; Titan Krios 300 kV; C12, C13, C14 classes
protein,measurement,setting,value
B1,stoichiometry N,[1],3 and 4
same,stoichiometry N,[2],12 and 13
same,stoichiometry N,[3],~3
same,stoichiometry N,[4],14
